Measurements: patent US10076576B2, “Minimally toxic prodrugs” (priority 2012, dated 2018)
Where “and” joins values, the source holds several entries; their conditions need not be identical. Equal values may be shown once. Entries after “also recorded” stand apart in the source; their conditions may differ.

Key:
[1] = format: in vivo, CD1 mice
Method: FIG. 12. Evaluation of PhAc-ALGP-Dox leucopenic effect in comparison with Doxorubicin. CD1 mice received twice daily intraperitoneal injections of PhAc-ALGP-Dox 35 μmol/kg (●) or of Doxorubicin 3.5 μmol/kg (▪) for five consecutive days. The mice body weight evolution was recorded (A). Blood was collected from the tail vein in heparinised Microvettes tubes (Starsted) at day 4, 11 and 15 after treatment initiation. Peripheral white blood cells (WBC) were counted using the SCILvet abc hematologic analyzer (B). The increase or decrease in WBC is expressed as a percentage of WBC on day 0 (100%) for each mouse. The curves show evolution of the mean percentages.
The leucopenic effects of PhAc-ALGP-Dox (35 μmol/kg ip) and of Doxorubicin (3.5 μmol/kg ip) were compared in two independent experiments. CD1 mice received two daily intraperitoneal injections of drugs for five consecutive days (total 10 injections/mouse; 2×5 animals per group). The mice body weight evolution was recorded. Blood was collected from the tail vein in EDTA-coated Microvettes tubes (Starsted) at day 4, 11 and 15 after treatment initiation. White blood cells (WBC) were counted using the SCILvet abc hematologic analyzer. The increase or decrease in WBC was expressed as a percentage of WBC on day 0 (100%) for each mouse.

[2] = test system: LS174T colon carcinoma human xenografts; assay: Efficacy after repeated iv bolus, LS174T xenograft; settings: for TGI [% (day)]: day 28
Method: FIG. 2. Efficacy study of PhAc-ALGP-Dox in comparison with free Doxorubicin in NMRI nude mice bearing LS174T colon carcinoma human xenografts. Drugs or controls were administered by the i.v. route on day 0 and day 7. The mice receiving a constant volume (10 μL/g) of either saline (-●-;-◯-) or of the different dosing solutions: PhAc-ALGP-Dox 140 μmolKg (-▴-) and 160 μmol/kg (-×-); Dox 15 μmol/kg (-♦-). Results represent the mean body weight and tumor volume evolution±SEM (n=4).
The anti-tumor activity of doxorubicin and PhAc-ALGP-Dox was tested in models of athymic mice (nude/nude NMRI) carrying ectopic xenografts of human LS-174T colon carcinoma or MX-1 mammary carcinoma.
LS174T and MX-1 tumors were established by a subcutaneous implantation of cells (3×10^6 and 10^7 cells injected respectively) in the right flank of 6 weeks old female NMRI nude mice (Harlan). […] The day of the first injection animals were randomly assigned to groups of 4 animals. […] Compounds were delivered by bolus intravenous injection (i.v.) in the lateral tail vein at 10 μl/g. During the course of the experiment, clinical signs, body weight and tumor volume were controlled twice a week. Results are presented as the evolution of mean tumor volume as a function of time. Optimal T/C (ratio of mean tumor volume of treated versus control mice) values were used as a measure of treatment efficacy.

in vivo = settings: female, OF-1, mouse, iv, 86.2 umol/kg
Method: Time evolution of plasma concentration (A, B) and of cardiac tissue concentration (C, D) of Doxorubicin or PhAc-ALGP-Dox and its metabolites after i.v. bolus injection to OF-1 female wild type mice at the dose of 86.2 μmol/kg. Results represent the mean concentration±SD (n=3).
Pharmacokinetic tissue distribution studies were performed using OF-1 mice. […] At different time points after drug administration (5 min, 30 min, 1 h, 4 h, 7 h, 16 h and 24 h) 3 mice per group were sacrificed by cervical dislocation and blood and heart tissue were collected. Hearts were incised and rinsed carefully in phosphate buffer saline (to eliminate blood in the cardiac cavities), dried on paper and frozen in liquid nitrogen. They were stored until analysis. Blood samples were centrifuged (10 min, 2000 g, 4° C.) to separate the plasma fraction, which was stored for analysis. The hearts were homogenized with an Ultraturrax homogenizer in 1.5 mL water. The protein concentration was measured using the microBCA protein assay (Pierce). The drug tissue quantification was made by HPLC after extraction: 150 μL of acetonitrile was added to the 50 μL samples. Samples were vortexed and centrifuged for 10 min at 13 000 rpm at room temperature. Supernatant was collected. Samples were buffered by addition of 200 mM formiate buffer pH 4.5 (1 V sample supernatant+3 V buffer) before HPLC analysis (fluo detection ex=235 nm em=560 nm).

[3] = Pharmacokinetics and heart quantification after single ip injection; settings: for Dox concentration in heart after 24 h: ip 92 μmol/kg of the labelled drug, ± SD
Method: Time evolution of blood concentration of PhAc-ALGP-Dox and its metabolites (A) or of Doxorubicin (B) after intraperitoneal injection to OF-1 female wild type mice at the equimolar dose of 92 μmol/kg. Results represent the mean concentration±SD (n=3).
Pharmacokinetic tissue distribution studies were performed using OF-1 mice. Doxorubicin and PhAc-ALGP-Dox were dissolved in saline at the dose of 9.2 mM and administered to mice by intraperitoneal route (10 μL/g, 6 mice per group). At different time points after drug administration (5 min, 30 min, 1 h, 4 h, and 24 h), blood samples were collected from the lateral tail vein of three mice using EDTA-coated microtubes (Starsted). After 24 h, 3 mice per group were sacrificed by cervical dislocation and hearts were collected. They were incised and rinsed carefully in phosphate buffer saline (to eliminate blood in the cardiac cavities), dried on paper and frozen in liquid nitrogen. They were stored until analysis. The hearts were homogenized with an Ultraturrax homogenizer in 1.5 mL water. The protein concentration was measured using the microBCA protein assay (Pierce). The drug tissue quantification was made by HPLC after extraction: 150 μL of acetonitrile was added to the 50 μL samples. Samples were vortexed and centrifuged for 10 min at 13 000 rpm at room temperature. Supernatant was collected. Samples were buffered by addition of 200 mM formiate buffer pH 4.5 (1 V sample supernatant+3 V buffer) before HPLC analysis (fluo detection ex=235 nm em=560 nm).

[4] = molecular target: T1, TOP (recombinant human thimet oligopeptidase) (Homo sapiens, UniProt P52888); assay: Reactivation assay with purified TOP; format: biochemical; settings: 3 h at 37° C., 50 μM compound
T1 construct: purchased R&D systems 3439-ZN
Method: (§1) TOP (recombinant human thimet oligopeptidase, R&D systems, Ref 3439-ZN) was diluted at 10 nM in a solution of 50 mM Tris-HCl pH 7.4/0.5M NaCl/0.1M DTT. CD26 and FAP were diluted at 1 μg/mL in a Tris-HCl pH 7.5 buffer. Reactions were initiated by addition of 50 μM of each compound to enzymes solutions (1 V enzyme solution+1 V 100 μM drug solution). Samples were incubated for 0, 1, or 3 hours at 37° C. in a water bath in the presence of purified enzymes. Fifty μL of sample were collected at each time point and processed as described above for human plasma. Activation of Suc-βALAL-dox was tested in parallel as a reference.

CD26 = CD26 (Homo sapiens, UniProt P27487); assay: Reactivation assay with purified CD26; format: biochemical; settings: CD26 1 μg/ml
Method: as §1

[5] = molecular target: T2, CD10 (recombinant human neprilysin) (Homo sapiens, UniProt P08473); assay: Reactivation assay with purified CD10; format: biochemical; settings: 3 h at 37° C., 50 μM compound
T2 construct: purchased R&D systems 1182-ZN

[6] = In vitro cytotoxicity on control fibroblasts (neutral red uptake); format: cell-based, mouse; settings: mouse, inactivated mouse embryonic fibroblasts (MEF), 20 μg/ml
Method: FIG. 5. In vitro cellular toxicity of PhAc-ALGP-Dox and Doxorubicin on Cor.At® cells (mouse embryonic stem cell derived cardiomyocytes). As non-specific control, the test was also performed on inactivated mouse embryonic fibroblasts (MEF). Cells were cultured for 48 h in the presence of drugs and a neutral red uptake test was performed to determine cell viability. Results represent the cytotoxicity curves. The IC50 values were calculated from the cytotoxicity curves using the Prism GraphPad software 5.0.
The in vitro cardiotoxicity test was carried out in a relevant and predictive in vitro model for cardiac safety screening in early lead optimization using mouse embryonic stem cell derived cardiomyocytes (Cor.At®, Axiogenesis (Germany)). Cor.At® cardiomyocytes provide a standardized, homogenous and reproducible cell system for the in vitro classification of a compound's cardio-cytotoxic potential. After incubation with test compounds, the neutral red uptake test was used to determine effects which directly affect the viability and integrity of cardiac cells when compared to a non-specific reference cell type, e.g. mouse fibroblasts (MEF).

[7] = Stability in citrated human blood; settings: 5 hours incubation at 37° C. in citrated human blood, 50 μM
[8] = test system: LoVo colon carcinoma xenografts; assay: Activation at the tumor site after single iv bolus, LoVo xenograft; format: in vivo, NMRI nude mice; settings: 24 hours after single iv injection, 15-620 μmol/kg
Method: FIG. 6. PhAc-ALGP-Dox was administered at increasing concentrations (15, 35, 50, 100, 200, 300, 460, 620 μmol/kg) by intravenous injection to NMRI nude mice bearing LoVo colon carcinoma xenografts (3 mice per group). After 24 hours, mice were sacrificed and tumors were collected. Doxorubicin tumor concentration was determined after extraction by HPLC analysis. Results represent the average Doxorubicin tumor concentration (pmol/mg protein)±SD.
Drugs or controls were administered four weeks after subcutaneous implantation of the xenograft. […] The PhAc-ALGP-Dox conjugate was dissolved in saline at increasing doses (1.5, 3.5, 5, 10, 20, 30, 46, and 62 mM). […] Twenty-four hours after injection, mice were sacrificed by cervical dislocation and tumors were collected, rinsed in phosphate buffer saline and homogenized. An extraction of drugs from tumor homogenates was performed with acetonitrile and Doxorubicin present in tumors was quantified by HPLC analysis.

T1 sequence (P52888 whole entry): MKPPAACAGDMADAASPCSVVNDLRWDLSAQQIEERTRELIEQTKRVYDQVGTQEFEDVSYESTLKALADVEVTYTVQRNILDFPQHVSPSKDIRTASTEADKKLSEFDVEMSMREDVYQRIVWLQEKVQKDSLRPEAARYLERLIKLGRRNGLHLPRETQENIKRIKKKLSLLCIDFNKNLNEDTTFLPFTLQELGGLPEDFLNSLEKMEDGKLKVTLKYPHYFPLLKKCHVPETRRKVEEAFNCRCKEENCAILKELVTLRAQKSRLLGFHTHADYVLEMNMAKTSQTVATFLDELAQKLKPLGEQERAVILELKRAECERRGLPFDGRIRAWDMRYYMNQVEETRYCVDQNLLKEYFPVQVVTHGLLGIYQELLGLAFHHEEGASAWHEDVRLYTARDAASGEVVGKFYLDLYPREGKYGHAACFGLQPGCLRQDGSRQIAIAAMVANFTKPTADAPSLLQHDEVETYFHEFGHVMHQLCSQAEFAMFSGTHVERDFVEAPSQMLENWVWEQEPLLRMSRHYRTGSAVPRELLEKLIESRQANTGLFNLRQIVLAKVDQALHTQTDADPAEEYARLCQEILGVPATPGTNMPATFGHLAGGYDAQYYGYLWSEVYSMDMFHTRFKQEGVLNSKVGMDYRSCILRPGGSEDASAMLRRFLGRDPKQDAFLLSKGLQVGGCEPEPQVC
Sequence of CD26 (P27487 whole entry): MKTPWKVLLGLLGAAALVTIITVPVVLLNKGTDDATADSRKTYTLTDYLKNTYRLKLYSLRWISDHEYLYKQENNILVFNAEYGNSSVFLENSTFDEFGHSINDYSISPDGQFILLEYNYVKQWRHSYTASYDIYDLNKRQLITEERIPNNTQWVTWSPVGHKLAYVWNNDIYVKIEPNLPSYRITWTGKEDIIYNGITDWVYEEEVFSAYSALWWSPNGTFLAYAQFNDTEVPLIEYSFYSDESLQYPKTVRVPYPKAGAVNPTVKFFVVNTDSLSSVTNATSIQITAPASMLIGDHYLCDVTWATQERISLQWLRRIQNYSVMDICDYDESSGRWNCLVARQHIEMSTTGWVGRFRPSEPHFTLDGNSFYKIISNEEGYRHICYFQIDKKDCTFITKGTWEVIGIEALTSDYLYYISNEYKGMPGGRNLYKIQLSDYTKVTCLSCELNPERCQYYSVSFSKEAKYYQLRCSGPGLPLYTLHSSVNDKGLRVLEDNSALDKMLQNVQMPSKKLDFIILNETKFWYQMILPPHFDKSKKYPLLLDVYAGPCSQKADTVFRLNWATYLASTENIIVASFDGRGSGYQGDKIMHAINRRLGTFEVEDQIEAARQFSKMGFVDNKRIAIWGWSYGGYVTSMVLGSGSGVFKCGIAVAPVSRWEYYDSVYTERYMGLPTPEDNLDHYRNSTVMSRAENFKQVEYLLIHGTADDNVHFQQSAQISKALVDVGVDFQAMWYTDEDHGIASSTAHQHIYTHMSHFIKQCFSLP
T2 sequence (P08473 52-750 limits assumed): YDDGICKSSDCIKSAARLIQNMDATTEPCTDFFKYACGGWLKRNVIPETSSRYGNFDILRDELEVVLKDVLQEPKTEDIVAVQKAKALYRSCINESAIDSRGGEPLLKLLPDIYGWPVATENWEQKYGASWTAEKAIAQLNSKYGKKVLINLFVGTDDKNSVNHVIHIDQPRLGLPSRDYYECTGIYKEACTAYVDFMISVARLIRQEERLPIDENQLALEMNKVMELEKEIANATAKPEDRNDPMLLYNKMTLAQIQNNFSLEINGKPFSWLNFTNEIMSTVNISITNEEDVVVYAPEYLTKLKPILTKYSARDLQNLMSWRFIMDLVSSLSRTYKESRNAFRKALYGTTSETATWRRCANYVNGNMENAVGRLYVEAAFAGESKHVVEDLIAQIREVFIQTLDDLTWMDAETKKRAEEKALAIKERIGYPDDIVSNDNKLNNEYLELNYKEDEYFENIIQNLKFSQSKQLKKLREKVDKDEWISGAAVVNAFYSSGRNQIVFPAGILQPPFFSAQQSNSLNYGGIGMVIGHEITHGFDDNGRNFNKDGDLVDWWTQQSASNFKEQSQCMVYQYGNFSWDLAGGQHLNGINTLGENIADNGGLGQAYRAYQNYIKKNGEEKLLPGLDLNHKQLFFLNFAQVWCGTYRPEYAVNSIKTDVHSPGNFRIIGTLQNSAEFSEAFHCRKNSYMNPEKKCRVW

Row | Structure (SMILES) | mortality ([1]; 3.5 μmol/kg ip 2Q1D5, 2×5 animals) | TGI [% (day)] ([2]; 15 μmol/kg iv day 0 and 7) | AUC (in vivo) [µM·h] | percentage of the injected dose reaching the blood compartment in the first five minutes ([3]; ip 92 μmol/kg) | Dox concentration in heart after 24 h [3] [pmol/mg protein] | leucopenic effect and body weight loss (in words) ([1]; 35 μmol/kg ip 2Q1D5) | % Metabolites released after 3 h (TOP 5 nM) [4] | hydrolysis by CD26 (in words) (CD26) | % Metabolites released after 3 h (CD10 10 nM) [5] | body weight loss (maximum) ([2]; 140 μmol/kg and 160 μmol/kg iv, twice) [%] | TGI [% (day)] ([2]; 140 μmol/kg iv day 0 and 7) | TGI [% (day)] ([2]; 160 μmol/kg iv day 0 and 7) | viability at 48 h, 20 µg/mL [6] [%] | % metabolites released: Dox [7] [%] | % metabolites released: GP-dox [7] [%] | % metabolites released: P-Dox [7] [%] | total % metabolites [7] [%] | injected dose at which Dox tumor concentration reaches a plateau [8] [µmol/kg] | time after which the conjugate was no longer detected in blood ([3]; ip 92 μmol/kg) [h] | Doxorubicin cardiac accumulation versus Doxorubicin injection (times less) ([3]; ip 92 μmol/kg equimolar, 24 h) [times]
1 | COc1cccc2c1C(=O)c1c(O)c3c(c(O)c1C2=O)C[C@@](O)(C(=O)CO)C[C@@H]3O[C@H]1C[C@H](N)[C@H](O)[C@H](C)O1 [Doxorubicin, reference compound] | one mouse was found dead at day 11 as well as 3 mice at day 15 | 55 (28) % | 63 | about 2.5% | 253 ± 60 |  |  |  |  |  |  |  |  |  |  |  |  |  |  | 
2 | COc1cccc2c1C(=O)c1c(O)c3c(c(O)c1C2=O)CC(O)(C(=O)CO)CC3OC1CC(NC(=O)C2CCCN2C(=O)CNC(=O)C(CC(C)C)NC(=O)C(C)NC(=O)CP(=O)(O)O)C(O)C(C)O1 (centres unmarked) [PhAc-ALGP-Dox, PhAc-ALGP-doxorubicin] |  |  | 97 | about 1% | 13 ± 3 | No leucopenic effect and body weight loss | 72% and 72 ± 14% | Neither CD26 nor FAP hydrolized; also recorded: did not hydrolyze | 25% and 25 ± 4% | ≤ 10 | 79 (28) % | 81 (28) % | 81 | 6 | 3 | 0 | 9 | 200 | 4 | 19
